Experimental findings from patent US20170081647A1, “GENETIC DETECTION PLATFORM” (Pharmozyme, Inc., priority 2014, published 2017) are described below.

The target of one data set is T1, Taq polymerase (Thermus aquaticus, UniProt P19821, A391P/R392G/V390W).
T1 construct: made in house; host or cells: E. coli Rosetta 2 (DE3), plasmid pET21-Biotin-His6-ABP-Taq
As to the kind of experiment: Polymerase activity in the presence of a polymerase inhibitor (amplification reaction at 45° C.). It counts as biochemical. As to the method: The assay was fixed at a final volume of 100 μl, and contained reaction components at the following final concentrations: oligonucleotide of SEQ ID NO: 8; 40 μM, dNTPs; 200 μM (each), APS; 1.6 mM, ATP sulfurylase; 0.12 Units, D-Luciferin; 0.3 mM, and Luciferase; 3 μg.
FIG. 9 illustrates a luminescence assay that indicates the Taq polymerase activity. As shown in FIG. 9A and FIG. 9B, a time course is initially indicated with a lag phase, normally less than 2 minutes, followed by a linear increase in luminescence. The rate of luminescence increase (slope) defines the Taq polymerase activity.
Hot Start Taq DNA polymerase was obtained from New England BioLabs (NEB). Taq polymerase from New England BioLabs was tested as a control. An amplification reaction was performed to determine the activity of Bio-HIS-ABS-Taq in the presence of human serum albumin (HSA) at 45° C. and to compare the activity of Bio-HIS-ABS-Taq in the presence of HSA with Hot Start Taq polymerase (NEB). The ratio of Bio-HIS-ABS-Taq to HSA is 1:1. Table 2 illustrates the activity of Bio-HIS-ABS-Taq in the presence of HSA compared to the activity of Hot Start Taq Polymerase from NEB.

Data set [1] addresses human serum albumin (HSA), P02768.
Data set [2] is described as follows: Protamine-based method optimization: Qubit protein remaining. To be noted: protamine beads. The method, then:
For protamine attachment, NHS-activated Sepharose beads were utilized and coupling was performed in 0.1 M HEPES buffer (pH 7.0), with a protein to bead ratio of 25 mg of the protein to 1 ml bead suspension (0.5 ml packed), pre-washed with 1 mM HCl. Attachment of protamine to beads was completed by leaving the suspension on rotation overnight at 4° C., followed by washing with 0.1 M Tris (pH 8.5), to block any remaining NHS groups on beads. The procedure ensured overall coverage of Sepharose beads with the highly charged protamine molecules.
DNA contaminant removal was accomplished using 15 μl of packed protamine-Sepharose beads per mg Taq polymerase, in 0.05 M sodium acetate, 0.2 M potassium chloride, pH 5.0. After leaving on rotation for 10 minutes, the suspension was centrifuged for 3 minutes at 1000×g, and the supernatant containing the enzyme was tested for DNA contamination, using a Qubit quantitation system.
pH Optimization: pH at 4.4, 4.75, 5.5, 6, and 7.7 were tested. Buffers used for adjusting the pH included acetate pH 4, acetate pH 5, MES pH 6, HEPES pH 7, and Tris pH 8. In each tube, 4 ul of the protamine bead slurry (protamine from Sigma-Aldrich) was used, 10 ul of buffer, 7 ul of 3.5 M KCl, and 140 ul of the buffer exchanged Bio-HIS-ABS-Taq polymerase. The initial concentrations of the polymerase and DNA contaminant were 0.478 mg/mL and 65.3 ng/mL, respectively.
Table 4 illustrates the final concentrations of the Bio-HIS-ABS-Taq polymerase and DNA contaminant from a second set of experiment. The initial concentrations of the polymerase and DNA contaminant were 0.55 mg/mL and 65.3 ng/mL, respectively.
Table 5 illustrates the final concentrations of the Bio-HIS-ABS-Taq polymerase and DNA contaminant from an experiment that modulates the salt concentration. The initial concentrations of the polymerase and DNA contaminant were 0.487 mg/mL and 82.9 ng/mL, respectively.

The mark [3] stands for this setting: relative to Control #2 (Taq, NEB).
The mark [4] stands for this setting: KCl 0.145 M, initial polymerase 0.487 mg/mL.
Where [5] appears, read: KCl 0.194 M, initial polymerase 0.487 mg/mL.
Setting [6] is: KCl 0.242 M, initial polymerase 0.487 mg/mL.
Where [7] appears, read: KCl 0.291 M, initial polymerase 0.487 mg/mL.
[8] abbreviates: KCl 0.340 M, initial polymerase 0.487 mg/mL.
Where [9] appears, read: pH 4.4, initial polymerase 0.478 mg/mL.
Setting [10] is: pH 4.75, initial polymerase 0.478 mg/mL.
Setting [11] is: pH 5.5, initial polymerase 0.478 mg/mL.
[12] abbreviates: pH 6, initial polymerase 0.478 mg/mL.
Setting [13] is: pH 7.7, initial polymerase 0.478 mg/mL.
[14] abbreviates: second set, pH 4.03, initial polymerase 0.55 mg/mL.
Setting [15] is: second set, pH 4.22, initial polymerase 0.55 mg/mL.
Setting [16] is: second set, pH 4.40, initial polymerase 0.55 mg/mL.
The mark [17] stands for this setting: second set, pH 4.80, initial polymerase 0.55 mg/mL.

Consider “Control #1 (Taq, NEB): Taq polymerase from New England BioLabs, tested as a control”, for which the “% activity” value in the data set with Taq polymerase (Bio-HIS-ABS-Taq to HSA 1:1, relative to Control #1 (Taq, NEB)) is 100%; with Taq polymerase (setting [3]), 100%.

As for “Hot Start (NEB): Hot Start Taq DNA polymerase obtained from New England BioLabs (NEB)”, in the data set with Taq polymerase (setting [3]), the “% activity” value is 91%.

B1: Bio-HIS-ABS-Taq polymerase (protein)
chain: MASSLRQILDSQKIEWRSNAGGASHHHHHHGGASLAEAKVLANRELDKYGVSDYHKNLINNAKTVEGVKDLQAQVVESAKKARISEATDGLSDFLKSQTPAEDTVKSIELAEAKVLANRELDKYGVSDYYKNLINNAKTVEGVKALIDEILAALPGTFAHYMDPNLEALFQGPNSLPLFEPKGRVLLVDGHHLAYRTFHALKGLTTSRGEPVQAVYGFAKSLLKALKEDGDAVIVVFDAKAPSFRHEAYGGYKAGRAPTPEDFPRQLALIKELVDLLGLARLEVPGYEADDVLASLAKKAEKEGYEVRILTADKDLYQLLSDRIHVLHPEGYLITPAWLWEKYGLRPDQWADYRALTGDESDNLPGVKGIGEKTARKLLEEWGSLEALLKNLDRLKPAIREKILAHMDDLKLSWDLAKVRTDLPLEVDFAKRREPDRERLRAFLERLEFGSLLHEFGLLESPKALEEAPWPPPEGAFVGFVLSRKEPMWADLLALAAARGGRVHRAPEPYKALRDLKEARGLLAKDLSVLALREGLGLPPGDDPMLLAYLLDPSNTTPEGWPGRYGGEWTEEAGERAALSERLFANLWGRLEGEERLLWLYREVERPLSAVLAHMEATGVRLDVAYLRALSLEVAEEIARLEAEVFRLAGHPFNLNSRDQLERVLFDELGLPAIGKTEKTGKRSTSAAVLEALREAHPIVEKILQYRELTKLKSTYIDPLPDLIHPRTGRLHTRFNQTATATGRLSSSDPNLQNIPVRTPLGQRIRRAFIAEEGWLLVALDYSQIELRVLAHLSGDENLIRVFQEGRDIHTETASWMFGVPREAVDPLMRRAAKTINFGVLYGMSAHRLSQELAIPYEEAQAFIERYFQSFPKVRAWIEKTLEEGRRRGYVETLFGRRRYVPDLEARVKSVREAAERMAFNMPVQGTAADLMKLAMVKLFPRLEEMGARMLLQVHDELVLEAPKERAEAVARLAKEVMEGVYPLAVPLEVEVGIGEDWLSAKE
For the molecule B1, in data set [1], the % activity was 73%.

B2: Bio-HIS-ABS-Taq polymerase: Taq polymerase with N-terminal biotin-tag, His6 and albumin-binding protein fusion (SEQ ID NO: 1), expressed in E. coli (protein)
chain: MASSLRQILDSQKIEWRSNAGGASHHHHHHGGASLAEAKVLANRELDKYGVSDYHKNLINNAKTVEGVKDLQAQVVESAKKARISEATDGLSDFLKSQTPAEDTVKSIELAEAKVLANRELDKYGVSDYYKNLINNAKTVEGVKALIDEILAALPGTFAHYMDPNLEALFQGPNSLPLFEPKGRVLLVDGHHLAYRTFHALKGLTTSRGEPVQAVYGFAKSLLKALKEDGDAVIVVFDAKAPSFRHEAYGGYKAGRAPTPEDFPRQLALIKELVDLLGLARLEVPGYEADDVLASLAKKAEKEGYEVRILTADKDLYQLLSDRIHVLHPEGYLITPAWLWEKYGLRPDQWADYRALTGDESDNLPGVKGIGEKTARKLLEEWGSLEALLKNLDRLKPAIREKILAHMDDLKLSWDLAKVRTDLPLEVDFAKRREPDRERLRAFLERLEFGSLLHEFGLLESPKALEEAPWPPPEGAFVGFVLSRKEPMWADLLALAAARGGRVHRAPEPYKALRDLKEARGLLAKDLSVLALREGLGLPPGDDPMLLAYLLDPSNTTPEGWPGRYGGEWTEEAGERAALSERLFANLWGRLEGEERLLWLYREVERPLSAVLAHMEATGVRLDVAYLRALSLEVAEEIARLEAEVFRLAGHPFNLNSRDQLERVLFDELGLPAIGKTEKTGKRSTSAAVLEALREAHPIVEKILQYRELTKLKSTYIDPLPDLIHPRTGRLHTRFNQTATATGRLSSSDPNLQNIPVRTPLGQRIRRAFIAEEGWLLVALDYSQIELRVLAHLSGDENLIRVFQEGRDIHTETASWMFGVPREAVDPLMRRAAKTINFGVLYGMSAHRLSQELAIPYEEAQAFIERYFQSFPKVRAWIEKTLEEGRRRGYVETLFGRRRYVPDLEARVKSVREAAERMAFNMPVQGTAADLMKLAMVKLFPRLEEMGARMLLQVHDELVLEAPKERAEAVARLAKEVMEGVYPLAVPLEVEVGIGEDWLSAKE
modifications: N-terminal biotin; Synthetic polypeptide Bio-HIS-ABS-Taq polymerase
With B2, the “% protein remaining (comp to buffer exch)” value (from here on “% protein remaining”) in data set [2] (setting [4]) was found to be 105%; in data set [2] (setting [5]), 101%; in data set [2] (setting [6]), 99.9%; in data set [2] (setting [7]), 70%; in data set [2] (setting [8]), 55%; in data set [2] (setting [9]), 97%. In addition, the “% protein remaining” value in data set [2] (setting [10]) is 60%; in data set [2] (setting [11]), 61%; in data set [2] (setting [12]) it was 64%; in data set [2] (setting [13]), 75%; in data set [2] (setting [14]), 94%; in data set [2] (setting [15]), 95%. Also, the entries for the “% protein remaining” value in data set [2] (setting [16]) and in data set [2] (setting [17]) were 96% and 93%, respectively. The Qubit protein remaining in data set [2] (setting [4]) stood at 0.513 mg/mL; in data set [2] (setting [5]) it was 0.495 mg/mL; in data set [2] (setting [6]) it was 0.487 mg/mL; in data set [2] (setting [7]), 0.339 mg/mL; in data set [2] (setting [8]), 0.271 mg/mL; in data set [2] (setting [9]) it was 0.462 mg/mL. Further, the Qubit protein remaining in data set [2] (setting [10]) came to 0.288 mg/mL; in data set [2] (setting [11]), 0.292 mg/mL; in data set [2] (setting [12]) it was 0.308 mg/mL; in data set [2] (setting [13]) it was 0.360 mg/mL; in data set [2] (setting [14]) it was 0.459 mg/mL; in data set [2] (setting [15]), 0.486 mg/mL. Besides, the Qubit protein remaining worked out at 0.505 mg/mL in data set [2] (setting [16]) and 0.497 mg/mL in data set [2] (setting [17]).
